# System: K4 kissing-loop RNA reporter
# Experiment: apparent KD of K4 kissing-loop reporter; higher = weaker reporter binding
# Conditions: Eterna round: R107; input ligand: none
# Experimental: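 RNA-MaP round R107: designed RNA switches with theophylline, tryptophan, arginine or FMN aptamers are transcribed on-chip within common flanks. They are titrated with a labelled K4 kissing-loop RNA reporter in RNA-MaP buffer (100 mM Tris pH 7.5, 80 mM KCl, 4 mM MgCl2), without ligand or with the indicated ligand. Median apparent KD per design.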
# 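Further: bound reporter read as fluorescence of individual clusters on recovered sequencing chips by microscopy, with normalized cluster intensities fitted with a binding model.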
row,Sequence,apparent KD of K4 kissing-loop reporter
1,UCUGCAAAGUCGGCCGCCACUCCGGGCCCUAUAAAUGGGCGCAGUGAUGUUGCGGCUAGGCCUCUGAGGACCGGGACUUUGUAGA [Atlesoqu],100 nM
2,GCCGUAGAUUGAAGGAGCGGGCCGUAGUGAUGUUACGCCAAGUUGUCUUUUAUUGAUGUGGCCCAGGUAGGUCGCAAUCUACGGC,311 nM
3,GCCGUAGAUUGAAGGAGCGUUCUUACUGAUUACGGCAGCCGGAAGUGAUGUUUCCAGGUGGAACAGGUAGGUCGCAAUCUACGGC,96 nM
4,GGCCGCAAGGCGAGCGCUCCCACUCCGGAAGGAGCGCCCGCAAGGGCAGGUAGGUCGCCGGAGUGAUGUUCCGGUGGAGGGCUCG [#2 Exclusion - Arginine A Attempt #16 (Inspired by Omei)],369 nM
5,AGAUGACAGGGAGGAUAUCCUAAUAUGGGUGAUGUUAGCGAUGUUGAAGGUGUAGUGAUGUUAUGCGGAGAAGGCCCUGUUGUUU [BDazzled - #23 - Exc. FMN B],115 nM
6,GUGAAGGAGCUGCAGUGAUGUUGCAGAGACUAGGAUAUCAGGAAACUGAGAAGGAGUCAACUCCUUCACCUAGACAACAUCACUA [[F]''-[K1]-[K2]-[F1]-[F2]-[F2]'-[F1]'-[K]'_Design2],128 nM
7,GCUAUGGUAGGAAGGAGCGCUUACUCGUUAAUAAGAGUGAUGUUCGAUAACGAGUAUUUAUAGCAGGUAGGUCGCCUACUAUAGC [Arginine B K4 4],168 nM
8,ACGUAGUUCUAGGAUACCAGCCAAGGUCGCCAGGACAAAAGUCCUGGCGCCAGUGAUGUUGGCCCUUGGCAGCCUAGAACUACGA [Omei KL Theo B Exc B v6],176 nM
9,GUCCAUGUCCUCAUUCGUGCACUGGACACCAAGGAUAUGUUUAUGGACAGAAGGUGGUUGGGUCAGUGAUGUUGAUAUAAUUAGU [theeternabot_exclusion_KL_FMN_A_24],278 nM
10,UAUACACAGGGAGGAUAUGCCCACACAACAACCGAGUGAUGUUCGGACAAUACACAUAAUACACGGGCAGAAGGCCCACAUCACA [SS FNM B Tesla 1],245 nM
11,AAUAAGUGUCAGCGAGUGAUGUUCGACGAUACCAGACUCGAUAGAGUCCCUUGGCAGCGUAACGCAUGCCAAACUGGCACAAUAA [#SwitchBubble 8 #K4Early],611 nM
12,GGAGGAGAAUAUGAUACCAGCAGAGAGAGAGAGGAAGUAUAGUGAUGUUAUAUGUGAGAAUGCCCUUGGCAGCAUAACAUGAAGG [whbob_SS_Theo_B_sa90],211 nM
13,GGCCGGAAGGCGAGCGCUCCCACUCCGGAAGGAGCGCCCGUAAGGGCAGGUAGGUCGCCGGAGUGAUGUUCCGGUGGAGGGCUCG [#2 Exclusion - Arginine A Attempt #21 (Inspired by Omei)],180 nM
14,AGUGUGCAAAAGCACACUCAGUACAAGGACAAGGAUAUCUACUAAUAGAGAAGGUGUCCUUUCCUUAGUGAUGUUAAGGAACUGA [Omei KL FMN A SS D v3],617 nM
15,AAAGAUCUUCUAGAAACUAGAAGAUCAAGAGAGGAUAUCCGAAUUCGGAGAAGGCUCACUAAGUGAUGUUUGGAGGGAAUCCCAA [AK1 SS FMN A],1670 nM
16,AGAGUUAAUUAGUCAUUUUUCACAUUAAGUCAGGAUAUCGUAUUUUCGAGAAGGGACACAUGCUAGUGAUGUUAGCUAUUUCUCA [JR_Nu_ExcFMNA_Sub021],68.3 nM
17,CCAGGACGAUGAGGAUGAUGAAUUACUGAAGGAGCGCAUAUGGUUGCAGGUAGGUCGCGGUGAACAAGUAUAGUGAUGUUAUGCC [SSArgA.V],693 nM
18,UGGGUUGGAAGUGAUGUUUCUCUAAGUGAUACCAGACAAAAGAAAGUCCCUUGGCAGCACAAUGAUGCCAAGGAAACGGCAUGAU [#16 K4 Theophylline A Same State],260 nM
19,AAGGUCACCACUACAGUGAUGUUGUGGGAGCAGGAUAUGCAGAAAUGCAGAAGGGCUCGCUCCCGGUGACCGAAUGAAACAUUCA [Omei KL FMN A SS A v5],981 nM
20,ACGUCAUAUGUAAUGGUGGUUUCGAUCGAUACCAGUAGCGAGAGUUACCCUUGGCAGCGACAUGAGUGAUGUUCAUGUAUGAAGA [KL-XTheo-A2 #analogue],107 nM
21,UAAGGGUUAUGUCCUCGGUGCGAAGAGCUCCGAGGACCGGUACGGCCGCCACUCGGAAGUUCUGAGUGAGGGAGUGAUGUUCCCU [Skye_Ex_TA],359 nM
22,CUUGAUGUGUCGGCCGCCACUGGUAUAGGCGGACUAUAACGACAUGAGUGAUGUUCAUGUUCGUCUAGGACCGGGACACAUUGUA [Tryp B SS t4],104 nM

# Same assay, conditions: Eterna round: R107; input ligand: theophylline 20 uM
row,Sequence,apparent KD of K4 kissing-loop reporter
1,UUAUAUUUUAUAUUUAGAUGAUCUAUAGCACGAGGACCGGUACGGCCGCCACUCGAGUGAUGUUCGAGAGCUAUAGAUCAUCAUU [AK2.2 EXC Tryptophan A],121 nM
2,CCUGGCGAGGUAACGUGGAUAUCUCGUCGCAAGGAUAUCUGGAAACAGAGAAGGUGCUACAUUACCGGCAGUGAUGUUGCUGACC,455 nM
3,AAAUAAAUGGCGGCCGCCACUGAACGCCUCCGCGUGGGUAUAUAGUGAUGUUAUAUGGCCGCCAUCAGGACCGGGCCAAAUAAAA [#08 K4 Tryptophan B Same State],377 nM
4,AAGGUCACUACUACAGUGAUGUUGUAGGAGCAGGAUAUGCAGAAAUGCAGAAGGGCUCGCUCCAAGUGACCGAAUGAAACAUUCA [Omei KL FMN A SS A v2],611 nM
5,CAUCUCAUGAAAUGAGAUGUCAUCAGUGAAGGAGCGCUAUUAGCAGCAGGUAGGUCGCACUGAAGCGGAGUGAUGUUCUGUAUGA [Arg A SS t3],214 nM
